Data as given in patent US20190309044A1, “POLYPEPTIDES AND USES THEREOF AS A DRUG FOR TREATMENT OF AUTOIMMUNE DISORDERS” (Compugen Ltd., priority 2017, published 2019).

Tests used:
Type in all cases: in vivo, mouse
[1] = test system: SJL/J mice; experiment: T cell and Treg counts in spleen and CNS by FACS, R-EAE with IL-10 or TGFb blockade; settings: day 44
Source text: On day 44 post disease induction, the rest of the mice were sacrificed and spleens and CNS were taken for cell counts and cell population analysis as described below.
4. Experimental stains (CD45, CD3, CD4, CD25, FoxP3, Nrp-1, and Helios)
9. Gating scheme for flow: Singlets (FSC-A vs. FSC-H)->Cells (SSC-A vs. FSC-A)->Live (VID stain negative cells)->CD45hi->CD3/CD4+->CD25/FoxP3+->Helios/Nrp-1

[2] = test system: NOD mice; experiment: Type 1 diabetes incidence in NOD mice; settings: Study III; p<0.001
Experimental: The effect of C1ORF32 ECD-Fc treatment on modulation of disease incidence was tested in NOD mice, which spontaneously develop a T1D disease. In NOD mice, autoreactive CD4+ can be observed within the β-islets as early as 2 weeks of age (Yang et al., Immunity. 1996 February; 4(2):189-94), and by 10 weeks of age, when the treatment with C1ORF32 ECD-Fc (SEQ ID NO: 42) began in the present experiments, NOD mice develop peri-insulitis and β-cell loss (Jimeno et al., Immunology and Cell Biology. (2010) 88, 734-745).
Materials: C1ORF ECD-Fc (SEQ ID NO:42) was used in these studies, as described below. Control Ig was mouse IgG2a from BioXcell (Cat# BE0085). NOD mice were purchased from Jackson labs, and blood glucose was measured via sampling a small drop of blood from the tail vein.
Methods: Six week old NOD mice were purchased from Jackson labs. […] Blood glucose levels were monitored weekly from 8 weeks of age until the mice reached […] of age as detailed below. Mice were considered diabetic upon having two consecutive blood glucose readings of >250 mg/dL. Diabetic mice were sacrificed on the day of the second high glucose level reading. Blood glucose levels were obtained from the tail vein, and the level of blood glucose measured via use of a OneTouch. […]

[3] = test system: female C57BL/6 recipient mice; experiment: HY bone marrow transplantation model, chimerism and T cell subtypes by FACS
Source text: A transplantation model utilizing male bone marrow (BM) cells from C57BL/6 mice transplanted into female mice of the same starin was used to study whether C1ORF32 ECD-Fc induces immune tolerance. In this model BM cells of the male mouse are rejected by the female recipients due to mismatch in the minor histocompatibility antigen encoded by the Y chromosome (Hya). To allow identification of the male cells in the female mice blood, male mice expressing CD45.1 isotype were selected while the female mice carry CD45.2 isotype. This model provides a tool for testing the effect of potential drugs on induction of tolerance towards the grafted cells.
In this model, C1ORF32 ECD-Fc (SEQ ID NO:42) treatment started one week before bone marrow transplantation and continued for five weeks. Female recipient mice were followed for percentage of CD45.1+ and CD45.2+ cells present within the blood.
Female C57BL/6 recipient mice (CD45.2+) were sub-lethally irradiated with 200 rads/cGy 24 hours before transplantation of either female C57Bl/6 (CD45.1+) or male C57Bl/6 (CD45.1+) 5×10^6 bone marrow cells. Recipient mice were allocated into treatment groups as detailed below (n=6 per group). Treatments were given at 300 ug/dose i.p, 3×/wk starting one week prior to transplantation and continued for 4 weeks following transplantation, giving a total of 15 treatments during this 5 weeks period.
1. Female CD45.1 into female CD45.2 2. Male CD45.1 into female CD45.2+ anti-CD40L (300 ug/dose) (Clone MR-1; BioXCell, Cat#BE0017-1) 3. Male CD45.1 into female CD45.2+C1ORF ECD-Fc (SEQ ID NO:42) (300 ug/dose)2 4. Male CD45.1 into female CD45.2+ Control Ig (mouse IgG2a) (300 ug/dose)
Beginning at 2 weeks following bone marrow transplantation, blood samples from the tail were collected from each mouse once a week for 4 weeks. Approximately 2-3 drops of blood were collected per mouse into 200 ul of PBS+EDTA (50 mM), samples were spun down, and RBCs lysed with ammonium chloride. The cells were washed 3× with PBS, stained with the viability dye Aqua Dead Cell Stain (Invitrogen; Cat#L34957), blocked with Fc Receptor block (anti-mouse CD16/32; eBioscience; Cat#14-0161-86), and stained with anti-mouse CD45.1 APC-Cy7 (eBiosciences; Cat#47-0453-80) and anti-mouse CD45.2 FITC (eBioscience; Cat#11-0454-82). The analysis for chimerism was determined by flow cytometric analysis (on total live cells) for the percentage of CD45.1+ versus CD45.2+ cells present in the blood of female recipient mice.
During weeks 6, 7, and 8 the blood samples were also stained to determine the percentage of CD4+ Teff cells and CD4+ Treg cells present within the blood using the cellular markers CD44, CD25, and FoxP3. Details of the Abs used in the flow panels for weeks 6, 7, and 8 are listed below.

B1: C1ORF32 ECD-Fc (SEQ ID NO:42): human-mouse fusion protein: human C1ORF32 ECD fused to mouse immunoglobulin Fc (SEQ ID NO:42) (protein)
chain: LQVTVPDKKKVAMLFQPTVLRCHFSTSSHQPAVVQWKFKSYCQDRMGESLGMSSTRAQSLSKRNLEWDPYLDCLDSRRTVRVVASKQGSTVTLGDFYRGREITIVHDADLQIGKLMWGDSGLYYCIITTPDDLEGKNEDSVELLVLGRTGLLADLLPSFAVEIMGSENLYFQGSGEPRGPTIKPCPPCKCPAPNLLGGPSVFIFPPKIKDVLMISLSPIVTCVVVDVSEDDPDVQISWFVNNVEVHTAQTQTHREDYNSTLRVVSALPIQHQDWMSGKEFKCKVNNKDLPAPIERTISKPKGSVRAPQVYVLPPPEEEMTKKQVTLTCMVTDFMPEDIYVEWTNNGKTELNYKNTEPVLDSDGSYFMYSKLRVEKKNWVERNSYSCSVVHEGLHNHHTTKSFSRTPGK
modifications: Fusion protein human C1ORF32-ECD fused to mouse IgG2a Fc
leukocytes and T cell counts in the CNS (CD45+, CD4+, CD25+/FoxP3+) [1]: pronounced decrease
incidence of T1D in comparison to Control Ig and PBS [2]: significantly decreased incidence of T1D
male CD45.1+ cells in the blood of recipient females ([3]; by week 4 post transplantation, maintained until week 8, 300 ug/dose i.p. 3x/wk 5 weeks): highly significant number of male CD45.1+ cells were present
effector/memory CD4+ T cells (CD45.1+/CD4+/CD44hi) in blood ([3]; week 6, vs Control Ig): decrease
CD45.2+ and CD4+ T cells within the spleen ([3]; week 8, vs Control Ig): lower percentage and number
donor Tregs (FoxP3+CD25+) in blood ([3]; week 8, vs Control Ig): significant increase
donor activated CD4+ T cells (FoxP3-CD25+) in blood ([3]; week 8, vs Control Ig): decrease
donor effector/memory CD4+ T cells (CD44hi) in blood ([3]; week 8, vs Control Ig): significant increase
recipients' CD45.2+ T cell populations in blood ([3]; week 8, vs Control Ig): No differences
